Laboratory results from the supplement of paper PMC10126150.
± gives the standard deviation of the averaged measurements.

Test system: ATP
Test: switch fluorescence ratio, 500 uM ATP over buffer (Cy3 cluster intensity, sum of 5 cycles each) (fold (ratio)); higher = stronger signal-on switching upon ATP binding; sequences stand for … in TCGTCGGCAGCGTCAGATGTGTATAAGAGACAGTTTTTTTTTTTTTTTTTTTTTTTTT…TC
Details: aptamer strand: ATP DNA aptamer (quencher-CACCTGGGGGAGTATTGCGGAGGAAGG + anchor), 100 nM annealed; ATP concentration: 500 uM
Summary of the method: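 For every switch-domain sequence, the fluorescence ratio is the mean of per-cluster values, each being summed target-cycle Cy3 intensity over summed buffer-cycle Cy3 intensity. Clusters outside 100-1000 RFU were excluded. On a modified Illumina MiSeq flow-cell, the Cy3-labelled switching-strand clusters were annealed to 100 nM quencher-labelled ATP aptamer, imaged in selection buffer and then after 15 min with 500 uM ATP at 22 °C. Five such cycles were run, with NaOH stripping and re-annealing between them.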
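Also: ATP exposure 15 min at 22 °C before imaging.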

Sequence | switch fluorescence ratio
CGTGATGGAG | 1.011 ± 0.009
CGTGATGGTA | 0.969 ± 0.0098
CGTGATGGTT | 0.983 ± 0.014
CGTGATTCAC | 1.007 ± 0.0075
CGTGATTTA | 0.961 ± 0.017
CGTGCAGGGT | 1.03 ± 0.052
CGTGCAGTTC | 1.15 ± 0.036
CGTGCATATC | 2.51 ± 0.17
CGTGCCGATC | 1.01 ± 0.013
CGTGCGGGGT | 0.991 ± 0.028
CGTGCGGTAT | 0.987 ± 0.039
CGTGCGGTGG | 1.01 ± 0.043
CGTGCTATTC | 1.235 ± 0.012
CGTGCTGTTA | 0.98019 ± 0.0002
CGTGGCATTT | 1.03 ± 0.07
CGTGGCGCCG | 0.957 ± 0.054
CGTGGCGGGA | 0.923 ± 0.09
CGTGGGACAG | 0.976 ± 0.011
CGTGGGACTC | 1.1401 ± 0.00046
CGTGGGCGCC | 0.972 ± 0.026
CGTGGGGATG | 1.001 ± 0.0031
CGTGGGGTTC | 0.983 ± 0.021

Sequence | switch fluorescence ratio
CGTGGGTTGT | 0.9956 ± 0.0018
CGTGGTCAAC | 0.968 ± 0.047
CGTGGTGGAG | 1 ± 0.045
CGTGGTGGCT | 0.989 ± 0.12
CGTGGTTTGT | 0.9874 ± 0.0051
CGTGTAAGGC | 0.993 ± 0.025
CGTGTAAGTA | 1.011 ± 0.0044
CGTGTAGGGA | 1.06 ± 0.029
CGTGTCGTGC | 0.971 ± 0.062
CGTGTCTTAA | 0.974 ± 0.021
CGTGTGGCCA | 1 ± 0.016
CGTGTGTATG | 0.997 ± 0.0085
CGTGTTTTAC | 1.018 ± 0.007
CGTTAAGCTT | 1.03 ± 0.014
CGTTACGTAG | 1.05 ± 0.018
CGTTACTAAC | 1.12 ± 0.02
CGTTAGGGGG | 1.02 ± 0.041
CGTTAGGTAT | 0.969 ± 0.033
CGTTAGTCGT | 0.981 ± 0.039
CGTTATACGG | 1.043 ± 0.0037
CGTTATATTT | 1.07 ± 0.14
CGTTATGTTC | 0.9772 ± 0.0031

Sequence | switch fluorescence ratio
CGTTATTCGG | 0.965 ± 0.032
CGTTATTTCT | 1.01 ± 0.052
CGTTCAAGTA | 0.973 ± 0.056
CGTTCAGGGG | 1.16 ± 0.024
CGTTCAGTGG | 1.031 ± 0.0083
CGTTCATGCG | 0.99 ± 0.032
CGTTCATTTG | 0.993 ± 0.028
CGTTCCAGCC | 1.04 ± 0.041
CGTTCCATTG | 1 ± 0.012
CGTTCCGGGT | 1.02 ± 0.036
CGTTCCTCGG | 1.77 ± 0.057
CGTTCGATGC | 1.21 ± 0.042
CGTTCGCTTA | 1.96 ± 0.037
CGTTCGGCTG | 1.04 ± 0.039
CGTTCGGGGG | 1.01 ± 0.083
CGTTCGGGGT | 0.981 ± 0.012
CGTTCTATCT | 1 ± 0.079
CGTTCTCTGT | 0.987 ± 0.029
CGTTCTGAGT | 0.955 ± 0.016
CGTTCTTGTT | 0.976 ± 0.032
CGTTGAATAT | 1.01 ± 0.016
CGTTGACCTT | 1.07 ± 0.029

Sequence | switch fluorescence ratio
CGTTGAGGTG | 1.02 ± 0.02
CGTTGCAAAG | 1.03 ± 0.022
CGTTGCGGGA | 1.01 ± 0.045
CGTTGCTCGG | 1 ± 0.0083
CGTTGCTTAG | 0.988 ± 0.024
CGTTGGACGG | 1.03 ± 0.026
CGTTGGGAGC | 1 ± 0.019
CGTTGGGAGT | 0.988 ± 0.037
CGTTGGGCAG | 0.953 ± 0.099
CGTTGGGGG | 0.963 ± 0.029
CGTTGGTGAG | 0.9373 ± 0.0065
CGTTGTTGGA | 1 ± 0.025
CGTTTAACAT | 1.01 ± 0.014
CGTTTAAGCG | 1.01 ± 0.038
CGTTTAAGGG | 0.9819 ± 0.0074
CGTTTAATCA | 0.982 ± 0.018
CGTTTACAAG | 0.985 ± 0.033
CGTTTACCTT | 1.0086 ± 0.001
CGTTTAGATA | 1 ± 0.042
